Experimental data: US20130171059A1 (AbbVie / Abbott, published 2013)

T1: Recombinant Human SOST (human, UniProt Q9BQB4 24-213)
T1 construct: Biacore used the R&D reagent; also called Human Sclerostin
T1 sequence (looked up): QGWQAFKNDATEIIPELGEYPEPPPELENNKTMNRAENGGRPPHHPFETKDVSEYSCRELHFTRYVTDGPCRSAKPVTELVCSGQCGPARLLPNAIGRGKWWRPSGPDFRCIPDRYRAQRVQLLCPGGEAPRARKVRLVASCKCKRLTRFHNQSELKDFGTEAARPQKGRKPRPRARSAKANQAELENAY

B1: DVD1984 (bispecific antibody)
DVD-H: DIQMTQSPSSLSASVGDRVTITCRASQGIRIDLGWYQQKPGKAPKRLIYAASTLQSGVPSRFSGSGSGTEFIFTISSLQPEDFASYYCLQHKSYPLTFGGGTKVEIKRTVAAPQVQLQESGPGLVKPSETLSLTCTVSGFSLIGYDLNWIRQPPGKGLEWIGIIWGDGTTDYNSAVKSRVTISKDTSKNQFSLKLSSVTAADTAVYYCARGGYWYATSYYFDYWGQGTLVTVSS
DVD-L: QVQLVESGGGVVQPGRSLRLSCAASGFTFSSYDMHWVRQAPGKGLEWVAVIWSDGSIKYYADSVKGRFTISRDNSKNTLYLQMNSLRAEDTAVYYCAREVESAMGGFYYNGMDVWGQGTTVTVSSASTKGPDIQMTQSPSSLSASVGDRVTITCRASQSISNNLNWYQQKPGKAPKLLIYYTSRFHSGVPSRFSGSGSGTDFTFTISSLQPEDIATYYCQQEHTLPYTFGQGTKLEIK
notes: VH/VL crossover DVD-Ig; also called DVD1984H + DVD1984L; copies: 2 + 2
B2: DVD1990 (bispecific antibody)
DVD-H: EIVMTQSPATLSVSPGERATLSCRASQSVSSNLAWYQQKPGQAPRLLIHGASIRATGLPARFSGSGSGTEFTLTISSLQSEDFAVYYCQQYNYWWTFGQGTKVEIKRTVAAPEVQLQQSGPELVTPGASVKISCKASGYTFTDHYMSWVKQSHGKSLEWIGDINPYSGETTYNQKFKGTATLTVDKSSSIAYMEIRGLTSEDSAVYYCARDDYDASPFAYWGQGTLVTVSA
DVD-L: EVQLVESGGGLIQPGGSLRLSCAASGFTVSRNYMSWVRQAPGKGLEWVSVIYSGDRTYYADSVKGRFTISRDNSKNTLYLQMNSLRAEDTAVYYCARGEGGFDYWGQGTLVTVSSASTKGPDVQMIQSPSSLSASLGDIVTMTCQASQGTSINLNWFQQKPGKAPKLLIYGSSNLEDGVPSRFSGSRYGTDFTLTISSLEDEDLATYFCLQHSYLPYTFGGGTKLEIK
notes: VH/VL crossover DVD-Ig; also called DVD1990H + DVD1990L; copies: 2 + 2
B3: DVD1991 (bispecific antibody)
DVD-H: DVQMIQSPSSLSASLGDIVTMTCQASQGTSINLNWFQQKPGKAPKLLIYGSSNLEDGVPSRFSGSRYGTDFTLTISSLEDEDLATYFCLQHSYLPYTFGGGTKLEIKRTVAAPEVQLVESGGGLIQPGGSLRLSCAASGFTVSRNYMSWVRQAPGKGLEWVSVIYSGDRTYYADSVKGRFTISRDNSKNTLYLQMNSLRAEDTAVYYCARGEGGFDYWGQGTLVTVSS
DVD-L: EVQLQQSGPELVTPGASVKISCKASGYTFTDHYMSWVKQSHGKSLEWIGDINPYSGETTYNQKFKGTATLTVDKSSSIAYMEIRGLTSEDSAVYYCARDDYDASPFAYWGQGTLVTVSAASTKGPEIVMTQSPATLSVSPGERATLSCRASQSVSSNLAWYQQKPGQAPRLLIHGASIRATGLPARFSGSGSGTEFTLTISSLQSEDFAVYYCQQYNYWWTFGQGTKVEIK
notes: VH/VL crossover DVD-Ig; also called DVD1991H + DVD1991L; copies: 2 + 2
B4: DVD1960 (bispecific antibody, not shown: a dimerising Fc or GST)
heavy: DIVMTQSHKFMSTTVGDRVSITCKASQAVSSAVAWYQQKPGQSPKLLIYWASTRHTGVPDRFTGSGSVTDFTLTIHNLQAEDLALYYCQQHYSTPFTFGSGTKLEIKRTVAAPQVQLQESGPGLVKPSETLSLTCTVSGFSLIGYDLNWIRQPPGKGLEWIGIIWGDGTTDYNSAVKSRVTISKDTSKNQFSLKLSSVTAADTAVYYCARGGYWYATSYYFDYWGQGTLVTVSS
light: QVQLKESGPGLVAPSQSLSITCTVSGFSLTDYGVNWVRQPPGKGLEWLGMIWGDGSTDYDSTLKSRLSISKDNSKSQIFLKMNSLQTDDTARYYCAREWHHGPVAYWGQGTLVTVSAASTKGPDIQMTQSPSSLSASVGDRVTITCRASQSISNNLNWYQQKPGKAPKLLIYYTSRFHSGVPSRFSGSGSGTDFTFTISSLQPEDIATYYCQQEHTLPYTFGQGTKLEIKR
B5: DVD1961 (bispecific antibody)
heavy: DIQMTQSPSSLSASVGDRVTITCRASQSISNNLNWYQQKPGKAPKLLIYYTSRFHSGVPSRFSGSGSGTDFTFTISSLQPEDIATYYCQQEHTLPYTFGQGTKLEIKRTVAAPQVQLKESGPGLVAPSQSLSITCTVSGFSLTDYGVNWVRQPPGKGLEWLGMIWGDGSTDYDSTLKSRLSISKDNSKSQIFLKMNSLQTDDTARYYCAREWHHGPVAYWGQGTLVTVSA
light: QVQLQESGPGLVKPSETLSLTCTVSGFSLIGYDLNWIRQPPGKGLEWIGIIWGDGTTDYNSAVKSRVTISKDTSKNQFSLKLSSVTAADTAVYYCARGGYWYATSYYFDYWGQGTLVTVSSASTKGPDIVMTQSHKFMSTTVGDRVSITCKASQAVSSAVAWYQQKPGQSPKLLIYWASTRHTGVPDRFTGSGSVTDFTLTIHNLQAEDLALYYCQQHYSTPFTFGSGTKLEIK
notes: VH/VL crossover DVD-Ig; also called DVD1961H + DVD1961L
B6: AB020 (antibody, V domains shown)
VH: QVQLQESGPGLVKPSETLSLTCTVSGFSLIGYDLNWIRQPPGKGLEWIGIIWGDGTTDYNSAVKSRVTISKDTSKNQFSLKLSSVTAADTAVYYCARGGYWYATSYYFDYWGQGTLVTVSS
VL: DIQMTQSPSSLSASVGDRVTITCRASQSISNNLNWYQQKPGKAPKLLIYYTSRFHSGVPSRFSGSGSGTDFTFTISSLQPEDIATYYCQQEHTLPYTFGQGTKLEIKR
notes: Parent antibody; also called NGF parent antibody

Experiments:
Recombinant Human β-NGF [1] = molecular target: T2, Recombinant Human β-NGF (human, UniProt P01138 122-239, limits assumed); assay: cell-based or functional assay
T2 sequence (P01138 122-239 limits assumed): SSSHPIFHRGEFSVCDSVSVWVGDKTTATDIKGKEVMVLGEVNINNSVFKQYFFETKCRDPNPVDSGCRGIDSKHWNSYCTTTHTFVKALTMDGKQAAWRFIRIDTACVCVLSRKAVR

Recombinant Human β-NGF [2] = molecular target: T2, Recombinant Human β-NGF; assay: SPR (Biacore)
Protocol: (§1) The BIACORE assay (Biacore, Inc, Piscataway, N.J.) determined the affinity of antibodies or DVD-Ig proteins with kinetic measurements of on-rate and off-rate constants. Binding of antibodies or DVD-Ig proteins to a target antigen (for example, a purified recombinant target antigen) was determined by surface plasmon resonance-based measurements with a Biacore® 1000 or 3000 instrument (Biacore® AB, Uppsala, Sweden) using running HBS-EP (10 mM HEPES [pH 7.4], 150 mM NaCl, 3 mM EDTA, and 0.005% surfactant P20) at 25° C. All chemicals were obtained from Biacore® AB (Uppsala, Sweden) or otherwise from a different source as described in the text. For example, approximately 5000 RU of goat anti-mouse IgG, (Fcγ), fragment specific polyclonal antibody (Pierce Biotechnology Inc, Rockford, Ill.) diluted in 10 mM sodium acetate (pH 4.5) was directly immobilized across a CM5 research grade biosensor chip using a standard amine coupling kit according to manufacturer's instructions and procedures at 25 μg/ml. Unreacted moieties on the biosensor surface were blocked with ethanolamine. Modified carboxymethyl dextran surface in flowcell 2 and 4 was used as a reaction surface. Unmodified carboxymethyl dextran without goat anti-mouse IgG in flow cell 1 and 3 was used as the reference surface. For kinetic analysis, rate equations derived from the 1:1 Langmuir binding model were fitted simultaneously to association and dissociation phases of all eight injections (using global fit analysis) with the use of Biaevaluation 4.0.1 software. Purified antibodies or DVD-Ig proteins were diluted in HEPES-buffered saline for capture across goat anti-mouse IgG specific reaction surfaces. Antibodies or DVD-Ig proteins to be captured as a ligand (25 μg/ml) were injected over reaction matrices at a flow rate of 5 μl/minute. The association and dissociation rate constants, kₒₙ (M⁻¹s⁻¹) and koff (s⁻¹) were determined under a continuous flow rate of 25 μl/minute. Rate constants were derived by making kinetic binding measurements at different antigen concentrations ranging from 10-200 nM. The equilibrium dissociation constant (M) of the reaction between antibodies or DVD-Ig proteins and the target antigen was then calculated from the kinetic rate constants by the following formula: KD=koff/kₒₙ. Binding was recorded as a function of time and kinetic rate constants were calculated.

[3] = molecular target: T3, Recombinant Human TNF-α/TNFSF1A (human, UniProt P01375 77-233); assay: SPR (Biacore)
T3 construct: Bought reagent for Biacore; also called huTNFα; HuTNFα
T3 sequence (P01375 77-233 limits assumed): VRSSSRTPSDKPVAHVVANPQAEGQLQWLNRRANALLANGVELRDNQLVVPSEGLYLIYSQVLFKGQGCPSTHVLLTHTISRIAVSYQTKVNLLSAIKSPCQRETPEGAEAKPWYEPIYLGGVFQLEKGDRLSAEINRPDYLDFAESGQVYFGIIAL
Protocol: as §1

[4] = molecular target: T3, Recombinant Human TNF-α/TNFSF1A; assay: cell-based or functional assay
Recombinant Human SOST [5] = molecular target: T1, Recombinant Human SOST; assay: SPR (Biacore)
Protocol: as §1

Recombinant Human SOST [6] = molecular target: T1, Recombinant Human SOST; assay: cell-based or functional assay
Recombinant Human β-NGF [7] = molecular target: T2, Recombinant Human β-NGF; assay: SPR (Biacore); antibody captured on anti-IgG Fc chip, antigen 10-200 nM in flow, 25 C, HBS-EP pH 7.4; koff 6.80E-06 is near the assay floor of 10^-6 s^-1
Protocol: The BIACORE assay (Biacore, Inc, Piscataway, N.J.) determined the affinity of antibodies or DVD-Ig proteins with kinetic measurements of on-rate and off-rate constants. Binding of antibodies or DVD-Ig proteins to a target antigen (for example, a purified recombinant target antigen) was determined by surface plasmon resonance-based measurements with a Biacore® 1000 or 3000 instrument (Biacore® AB, Uppsala, Sweden) using running HBS-EP (10 mM HEPES [pH 7.4], 150 mM NaCl, 3 mM EDTA, and 0.005% surfactant P20) at 25° C. All chemicals were obtained from Biacore® AB (Uppsala, Sweden) or otherwise from a different source as described in the text. […] The association and dissociation rate constants, kₒₙ (M⁻¹s⁻¹) and koff (s⁻¹) were determined under a continuous flow rate of 25 μl/minute. […] The equilibrium dissociation constant (M) of the reaction between antibodies or DVD-Ig proteins and the target antigen was then calculated from the kinetic rate constants by the following formula: KD=koff/kₒₙ. Binding was recorded as a function of time and kinetic rate constants were calculated.

Binder	C-Terminal VD NGF Neutralization Assay IC50 (TF-1 cell proliferation) (Recombinant Human β-NGF [1]) [nM]	Kd (Recombinant Human β-NGF [2]) [nM]	koff (Recombinant Human β-NGF [2]) [s⁻¹]	kon (Recombinant Human β-NGF [2]) [M⁻¹ s⁻¹]	Kd [3] [nM]	koff [3] [s⁻¹]	kon [3] [M⁻¹ s⁻¹]	N-Terminal VD TNFa Neutralization Assay IC50 (L929 cells) [4] [nM]	Kd (Recombinant Human SOST [5]) [nM]	koff (Recombinant Human SOST [5]) [s⁻¹]	kon (Recombinant Human SOST [5]) [M⁻¹ s⁻¹]	C-Terminal VD SOST Neutralization Assay IC50 (Wnt-1/luciferase HEK clone #14) (Recombinant Human SOST [6]) [nM]	N-Terminal VD SOST Neutralization Assay IC50 (Wnt-1/luciferase HEK clone #14) (Recombinant Human SOST [6]) [nM]	C-Terminal VD TNFα Neutralization Assay IC50 (L929 cells) [4] [nM]	N-Terminal VD NGF Neutralization Assay IC50 (TF-1 cell proliferation) (Recombinant Human β-NGF [1]) [nM]	NGF Neutralization Assay IC50 (TF-1 cell proliferation) (Recombinant Human β-NGF [1]) [nM]	Kd (Recombinant Human β-NGF [7]) [nM]
B1	0.593	0.096	4.3e-05	450000	0.015	3.7e-05	2.5e+06	0.017	–	–	–	–	–	–	–	–	–
B2	–	–	–	–	0.016	4.5e-05	2.8e+06	0.408	0.33	0.00058	1.8e+06	> 250	–	–	–	–	–
B3	–	–	–	–	0.66	7.1e-05	110000	–	0.017	0.00025	1.5e+07	–	36	0.401	–	–	–
B4	3.12	–	–	–	–	–	–	0.086	–	–	–	–	–	–	–	–	–
B5	–	< 0.00031	< 1e-06	3.2e+06	0.58	9.9e-05	170000	–	–	–	–	–	–	4.02	0.132	–	–
B6	–	–	6.8e-06	2.5e+06	–	–	–	–	–	–	–	–	–	–	–	0.008	0.0027
